The results in this text go back to patent US5763209, “Methods and materials relating to the functional domains of DNA binding proteins” (Arch Development Corporation).

One data set addresses Egr-1 Δ284-330 (Mus musculus, UniProt P08046 SEQ:1-533, del284-330). Put plainly: cell_activity; HeLa, enhanced activation. The protocol: A series of deletion derivatives, each retaining the zinc finger domain, was assayed for transcriptional activity by transient transfection in HeLa and NIH3T3 cells (see FIG. 9). NIH3T3 and HeLa cells were maintained in Dulbecco's modified Eagle's medium (DMEM) with 10% calf serum. Cells were seeded at 8 ×10^5 cells per 100 mm plate the day before transfection. The media was replaced 2 to 6 hours prior to transfection by calcium phosphate-mediated precipitation. Each precipitate included 1 μg of the internal reference pON260, a CMV driven β-galactosidase plasmid (67), or 3 μg of PCH110, a SV40 driven β-galactosidase plasmid (Pharmacia), and remained on the cells for 16–20 hours. Forty-eight hours after transfection, cell extracts were prepared by freeze thaw lysis in 0.25M Tris-HCl 7.8 with protease inhibitors (1mM PMSF, 1 μg/ml Pepstatin A, and […] Leupeptin).
Deletion analyses were performed as described in Example 10, above. […] The enhanced activation seen with deletion A284–330 is consistent with the loss of a region important for repression or negative regulation.

The next data set concerns the target Egr-1 (full length) (Mus musculus, UniProt P08046 SEQ:1-533). Put plainly: cell_activity; activation in NIH3T3; dependent on Egr-1 sites.

Chain of Egr-1 Δ284-330 (P08046 other isoform, or with tags, fused parts or gaps del284-330 | mutant): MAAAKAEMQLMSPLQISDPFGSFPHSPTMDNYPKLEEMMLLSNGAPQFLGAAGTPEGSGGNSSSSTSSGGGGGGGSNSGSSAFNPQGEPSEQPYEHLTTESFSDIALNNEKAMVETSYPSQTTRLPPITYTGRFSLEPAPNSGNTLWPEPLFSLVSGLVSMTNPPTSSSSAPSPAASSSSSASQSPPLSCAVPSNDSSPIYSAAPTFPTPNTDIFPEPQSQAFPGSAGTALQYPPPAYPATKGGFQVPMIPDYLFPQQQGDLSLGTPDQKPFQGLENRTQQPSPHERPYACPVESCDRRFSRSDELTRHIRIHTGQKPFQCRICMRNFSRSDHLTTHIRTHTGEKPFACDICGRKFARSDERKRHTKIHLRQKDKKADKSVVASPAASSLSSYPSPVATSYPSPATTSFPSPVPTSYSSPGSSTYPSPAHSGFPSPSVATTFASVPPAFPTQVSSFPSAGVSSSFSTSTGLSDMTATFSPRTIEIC
Chain of Egr-1 (full length) (P08046 whole entry): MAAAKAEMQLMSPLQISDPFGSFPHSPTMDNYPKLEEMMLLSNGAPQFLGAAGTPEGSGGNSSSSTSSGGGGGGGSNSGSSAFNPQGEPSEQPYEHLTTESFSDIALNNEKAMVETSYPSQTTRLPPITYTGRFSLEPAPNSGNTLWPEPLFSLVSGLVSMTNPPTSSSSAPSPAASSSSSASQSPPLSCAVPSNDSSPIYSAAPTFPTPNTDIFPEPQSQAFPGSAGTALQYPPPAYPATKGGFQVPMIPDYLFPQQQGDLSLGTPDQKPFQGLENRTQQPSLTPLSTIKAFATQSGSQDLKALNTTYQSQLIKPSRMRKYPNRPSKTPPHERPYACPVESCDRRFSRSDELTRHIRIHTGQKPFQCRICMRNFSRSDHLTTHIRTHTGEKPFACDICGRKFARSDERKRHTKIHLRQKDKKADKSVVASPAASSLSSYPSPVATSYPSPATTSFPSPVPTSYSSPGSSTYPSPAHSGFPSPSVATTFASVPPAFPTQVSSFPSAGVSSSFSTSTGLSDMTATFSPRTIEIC

B1: EBS1^3 foscat (3 Egr-1 sites in front of minimal c-fos promoter) (dsDNA)
DNA 1: CGCCCCCGC
DNA 2: GCGGGGGCG
In the case of B1, the results for the activity with Egr-1 Δ284-330 and with Egr-1 (full length) were ~5 fold of wild type and 10 fold, respectively.
